How the values were obtained:
[1] = target: gp140 of clade C strain Du156.1 (HIV-1 (clade C, strain Du156.1)); assay: cryo-EM 2D comparison of trimers; 2D comparison of gp140ΔV2TV1 with full length gp140 constructs; trimeric diameters measured
[2] = target: gp140 of clade C strain CAP45.2.00.G3 (HIV-1 (clade C, strain CAP45.2.00.G3)); assay: as above
[3] = target: gp140 of clade C strain CAP239.2.00.G3J (HIV-1 (clade C, strain CAP239.2.00.G3J)); assay: as above
[4] = target: full-length soluble trimeric gp140 immunogen from the clade C TV1 strain (HIV-1 (clade C, strain TV1)); assay: as above
[5] = target: full-length soluble trimeric gp140 immunogen from the clade C TV1 strain (HIV-1 (clade C, strain TV1)); assay: cryo-EM structure; unliganded gp140 in vitreous ice, 0.1 mg/ml, Tris buffer 20 mM pH 7.9, 50 mM NaCl; single particle reconstruction, ~21 Å at 0.5 FSC
[6] = target: gp140ΔV2TV1, clade C gp140 trimer with a 30-residue truncation in the V2 loop (HIV-1 (clade C, strain TV1)); assay: cryo-EM 2D comparison of trimers; 2D comparison of gp140ΔV2TV1 with full length gp140 constructs; trimeric diameters measured

Substance: gp140 of clade C strain Du156.1 (natural protein)
- stoichiometry N [1]: 3

Substance: gp140 of clade C strain CAP45.2.00.G3 (natural protein)
- stoichiometry N [2]: 3

Substance: gp140 of clade C strain CAP239.2.00.G3J (natural protein)
- stoichiometry N [3]: 3

Substance: full-length soluble trimeric gp140 immunogen from the clade C TV1 strain (natural protein)
- stoichiometry N [4]: 3
- stoichiometry N [5]: 3

Substance: gp140ΔV2TV1, clade C gp140 trimer with a 30-residue truncation in the V2 loop (natural protein)
- stoichiometry N [6]: 3

Reference: article PMC4231788
